{
  "source": "patent US7611721B1",
  "about": "“Adjuvant combination formulations” (priority 2000, dated 2009)",
  "key": {"[1]": {"tested_on": "Neisseria gonorrhoeae Porin B protein", "assay": "Vaginal wash anti-Porin B protein IgG and IgA titers", "format": "in vivo, Swiss-Webster mice", "conditions": "Experiment 11; Swiss-Webster; starting dilution 1/5", "protocol": "(§1) Outbred Swiss-Webster mice were divided into six groups of five mice each. Each group received 1 μg of recombinant Porin B protein (from strain FA1090 with 16 amino acids at the amino-terminus from a phage, followed by the mature form of the Porin B protein). […] Mice were immunized subcutaneously in the rump with a total volume of 0.2 ml. Immunizations were administered at week 0 and week 4.\n(§2) Mice were bled the day prior to each immunization, and at 13 days after the final immunization. Serum was analyzed from pools from mice within groups. […] All day 0 pre-immunization titers were less than 50. The starting dilution for vaginal lavage analysis was 1/5."}, "[2]": {"tested_on": "spleen cells", "assay": "Secretion of IL-4 by spleen cells (ELISA)", "format": "cell-based, Balb/c mice", "protocol": "For proliferation assays and in vitro cytokine analysis, spleen cells were obtained from mice at the indicated time points. Single cell suspensions were prepared from pools of 3-5 mice as indicated in Results. For proliferation and cytokine analysis, cells were suspended in round bottom 96 well culture plates precoated overnight with HIV peptide antigens, control proteins, or RPMI-10 only. Spleen cells were added at 5×10^5 cells/well using culture medium having 2× supplements. Cell culture supernatants were harvested from triplicate wells for cytokine analysis three or six days after culture initiation. Immediately after supernatant harvest, cultures were pulsed with ^3H-thymidine for 18-24 hours, and harvested to quantify cell proliferation.\nFor cytokine analysis, cell culture supernatants were added to wells coated with BVD6-11B11 (for anti-IL4), or R4-6A2 (for interferon-gamma). After incubation and washing, wells were developed using biotin-labeled BVD6-24G2 (for IL4) or XMG 1.2 (for interferon-gamma). The concentration of cytokines was determined using a standard curve prepared from recombinant murine interferon-gamma or interleukin-4. All cytokine reagents were purchased from Pharmingen (San Diego, Calif.).\nInterleukin-4 secreted into culture by spleen cells stimulated with 25 μg T1SP10MN(A) (−Cys) was measured. Spleen cells were harvested from pools of five Balb/c female mice and cultured with the indicated antigenic stimuli (50 ng IL-12, 10 μg GM-CSF, 50 μg MPL™ as indicated) for either three or six days. Interleukin-4 levels were determined by ELISA, and compared to a standard having a known concentration. Blank wells indicate that the assay could not detect Interleukin-4 from those culture conditions. The lower limit of detection sensitivity was 22 Units/ml.\nCells were cultured for a total of 96 hours. Cell culture supernatants were analyzed for IL-4 by ELISA. All values were after subtraction from those determined from supernatants of cells stimulated with 10 μg of an irrelevant protein (lysozyme). Results which were below the limit of detection, after subtraction from stimulation induced with lysozyme are indicated as “bd”. The adjuvants were 40 ng IL-12, 10 μg GM-CSF and 50 μg MPL™."}, "[3]": {"tested_on": "Neisseria gonorrhoeae Porin B protein", "assay": "Reciprocal anti-Porin B protein serum IgG endpoint subclass titers", "format": "in vivo, Swiss-Webster mice", "conditions": "Experiment 11; pooled serum n=5 Swiss-Webster; 1 μg Porin B s.c. week 0 and 4", "protocol": "as §1, with “five” for “six”, “ten” for “five”, “ml, divided equally into each of two sites at the base of the tail/rump.” for “ml.”\nMice were bled the day prior to each immunization, and at 13 days after the final immunization. Serum was analyzed from pools from mice within groups. […] All day 0 pre-immunization titers were less than 50.\nIndividual week 6 IgG titer geometric means against the recombinant Porin B protein were also determined.\nas §1, §2"}, "[4]": {"tested_on": "RSV F protein", "sequence (P03420 137-574)": "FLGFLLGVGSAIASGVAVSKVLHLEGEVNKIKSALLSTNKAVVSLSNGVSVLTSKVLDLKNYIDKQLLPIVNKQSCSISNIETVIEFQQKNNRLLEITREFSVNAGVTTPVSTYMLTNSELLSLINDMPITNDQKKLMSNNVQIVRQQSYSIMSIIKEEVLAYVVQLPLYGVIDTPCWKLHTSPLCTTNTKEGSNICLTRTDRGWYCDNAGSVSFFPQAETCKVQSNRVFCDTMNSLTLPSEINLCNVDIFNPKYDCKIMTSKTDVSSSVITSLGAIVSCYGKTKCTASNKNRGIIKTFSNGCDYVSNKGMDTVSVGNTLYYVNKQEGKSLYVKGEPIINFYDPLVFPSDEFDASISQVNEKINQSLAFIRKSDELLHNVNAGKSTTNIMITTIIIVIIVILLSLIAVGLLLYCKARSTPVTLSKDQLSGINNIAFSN", "conditions": "Experiment 14; pooled serum n=5 Balb/c; 3 μg F protein s.c. week 0 and 4"}, "[5]": {"tested_on": "T1SP10MN(A) (−Cys)", "quoted_text": "Mice were immunized subcutaneously in the rump, in a total volume of 0.2 ml equally divided on each side of the tail. Immunizations were administered at varying time intervals, as indicated below. Antigen and cytokines were diluted in phosphate buffered saline to the appropriate concentrations and formulated with adjuvants less than 16 hours prior to immunization, under sterile conditions. Vaccines were mixed by gentle agitation, and stored at 4° C. Formulations were mixed by vortex immediately prior to immunization.\nAnimals were bled prior to initial immunization, and at indicated time points. Serum was analyzed from individual mice, or as pools from mice within groups.\nFor analysis of HIV peptide-specific antibody and subclass distribution, peptide was suspended in either carbonate buffer (15 mM Na2CO3, 35 mM NaHCO3, pH 9.6), or PBS, at a concentration of 1 μg/ml and plated to 96 well microtiter plates (Nunc) in a volume of 100:1. After overnight incubation at 37° C., plates were washed, and blocked (0.1% gelatin/PBS) at room temperature for 2-4 hours. ELISA plates were washed with wash buffer (PBS, 0.1% Tween™20) before addition of serially diluted serum (PBS, 0.1% gelatin, 0.05% Tween™20, 0.02% sodium azide). After a four hour incubation, wells were washed and appropriate dilutions of biotinylated anti-isotype/subclass antibodies were added for incubation at 4° C. overnight. Wells were washed and incubated with strepavidin-conjugated horseradish peroxidase. After incubation, wells were washed, and developed with ABTS. Wells were read at 405 nm. Titers were standardized using control sera.\nReciprocal anti-HIV peptide-specific IgG endpoint titers were measured from pooled serum (n=5 Balb/c) at the indicated time points after initial immunization. Mice were immunized subcutaneously in the rump with 25 μg of T1SP10MN(A) (−Cys), unless otherwise indicated, on day 0, and on day 27. For recipients of Freund's adjuvants, mice were primed with peptide emulsified in CFA, and boosted with IFA. MPL™ SE was provided as an emulsion containing 2% squalene oil and 50 μg MPL™ per dose. SE is an oil-in-water emulsion vehicle consisting of squalene, glycerol, and an emulsifying agent. Recombinant murine IL-12 was delivered at 50 ng/mouse. Recombinant murine GM-CSF was delivered at 10 μg/mouse.\nReciprocal endpoint IgG subclass titers were measured from pooled serum (n=5 Balb/c) six weeks after initial immunization, two weeks after secondary immunization. Mice were immunized subcutaneously in the rump with 25 μg of peptide, unless otherwise indicated. For recipients of Freund's adjuvants, mice were primed with peptide emulsified in complete Freund's adjuvant, and boosted with incomplete Freund's adjuvant on weeks four and six. MPL™ SE was provided as an emulsion containing 2% squalene oil and 50 μg MPL™ per dose. SE is an oil-in-water emulsion vehicle consisting of squalene, glycerol, and an emulsifying agent. Recombinant murine IL-12 was delivered at 50 ng/mouse. Recombinant murine GM-CSF was delivered at 10 μg/mouse.\nMice were immunized subcutaneously in the rump, in a total volume of 0.2 ml equally divided on each side of the tail. Immunizations were administered on days 0 and 21 with 25 μg of the HIV peptide, together with the indicated amount of adjuvant(s).\nReciprocal anti-peptide IgG endpoint titers were measured from either geometric means from individual mice (GMT) or from pooled serum (n=5 Balb/c), obtained 14 days after the second immunization. IgG1 and IgG2a subclass endpoint titers were also measured from pooled serum."}, "[6]": {"conditions": "Experiment 2, 96 hours culture, after subtraction of lysozyme value, bd = below limit of detection"}, "[7]": {"conditions": "Experiment 1, pooled serum n=5 Balb/c, 25 μg peptide s.c. day 0 and 27"}, "[8]": {"conditions": "Experiment 1, pooled serum n=5 Balb/c, six weeks after initial, two weeks after secondary immunization, 25 μg peptide"}, "[9]": {"conditions": "Experiment 2, pooled serum n=5 Balb/c, 14 days after second immunization"}, "[10]": {"conditions": "Experiment 4, individual Balb/c mouse, day 41, 13 days after secondary immunization (days 0 and 28)"}, "[11]": {"conditions": "Experiment 4, pooled serum n=5 Balb/c, day 41, 13 days after secondary immunization"}},
  "data": [
    {"molecule": "rIL-12: Recombinantly expressed murine IL-12 (Genetics Institute) (protein, UniProt P43431 23-215; P43432 23-335, looked up) Interleukin-12 subunit alpha: RVIPVSGPARCLSQSRNLLKTTDDMVKTAREKLKHYSCTAEDIDHEDITRDQTSTLKTCLPLELHKNESCLATRETSSTTRGSCLPPQKTSLMMTLCLGSIYEDLKMYQTEFQAINAALQNHNHQQIILDKGMLVAIDELMQSLNHNGETLRQKPPVGEADPYRVKMKLCILLHAFSTRVVTINRVMGYLSSA Interleukin-12 subunit beta: MWELEKDVYVVEVDWTPDAPGETVNLTCDTPEEDDITWTSDQRHGVIGSGKTLTITVKEFLDAGQYTCHKGGETLSHSHLLLHKKENGIWSTEILKNFKNKTFLKCEAPNYSGRFTCSWLVQRNMDLKFNIKSSSSSPDSRAVTCGMASLSAEKVTLDQRDYEKYSVSCQEDVTCPTAEETLPIELALEARQQNKYENYSTSFFIRDIIKPDPPKNLQMKPLKNSQVEVSWEYPDSWSTPHSYFSLKFFVRIQRKKEKMKETEEGCNQKGAFLVEKTSTEVQCKGGNVCVQAQDRYYNSSCSKWACVPCRVRS", "values": [
      {"measurement": "Vaginal Wash IgA titer, anti-Porin B Protein", "setting": "[1]", "value": 5},
      {"measurement": "Vaginal Wash IgG titer, anti-Porin B Protein", "setting": "[1]", "value": 93},
      {"measurement": "Secretion of IL-4, Con A 1 μg/ml", "setting": "[2]; Experiment 1, Three Day Cultures, detection limit 22 Units/ml", "value": 156, "unit": "Units/ml"},
      {"measurement": "Secretion of IL-4, Con A 5 μg/ml", "setting": "[2]; Experiment 2, 96 hours culture, after subtraction of lysozyme value", "value": 411, "unit": "pg/mL"},
      {"measurement": "Secretion of IL-4, HIV Peptide 1.1 μg/ml", "setting": "[2]; [6]", "value": 15, "unit": "pg/mL"},
      {"measurement": "Secretion of IL-4, HIV Peptide 3.3 μg/ml", "setting": "[2]; [6]", "value": "bd"},
      {"measurement": "Secretion of IL-4, HIV Peptide 10 μg/ml", "setting": "[2]; [6]", "value": "bd"},
      {"measurement": "Reciprocal anti-Porin B Protein IgG1 endpoint titer, Week 3", "setting": "[3]", "value": "2,578"},
      {"measurement": "Reciprocal anti-Porin B Protein IgG1 endpoint titer, Week 6", "setting": "[3]", "value": "6,278"},
      {"measurement": "Reciprocal anti-Porin B Protein IgG2a endpoint titer, Week 3", "setting": "[3]", "value": "2,071"},
      {"measurement": "Reciprocal anti-Porin B Protein IgG2a endpoint titer, Week 6", "setting": "[3]", "value": "58,552"},
      {"measurement": "Reciprocal anti-Porin B Protein IgG endpoint titer, Week 3", "setting": "[3]", "value": "7,266"},
      {"measurement": "Reciprocal anti-Porin B Protein IgG endpoint titer, Week 6", "setting": "[3]", "value": "571,325"},
      {"measurement": "Reciprocal anti-RSV F Protein IgG1 endpoint titer, Week 3", "setting": "[4]", "value": "3,442"},
      {"measurement": "Reciprocal anti-RSV F Protein IgG1 endpoint titer, Week 6", "setting": "[4]", "value": "1,345,099"},
      {"measurement": "Reciprocal anti-RSV F Protein IgG2a endpoint titer, Week 3", "setting": "[4]", "value": 500},
      {"measurement": "Reciprocal anti-RSV F Protein IgG2a endpoint titer, Week 6", "setting": "[4]", "value": "65,951"},
      {"measurement": "Reciprocal anti-RSV F Protein IgG endpoint titer, Week 3", "setting": "[4]", "value": "13,557"},
      {"measurement": "Reciprocal anti-RSV F Protein IgG endpoint titer, Week 6", "setting": "[4]", "value": "4,459,059"},
      {"measurement": "Reciprocal anti-T1SP10MN(A) (-Cys) IgG endpoint titer, WEEK 4", "setting": "[5]; [7]", "value": "<100"},
      {"measurement": "Reciprocal anti-T1SP10MN(A) (-Cys) IgG endpoint titer, WEEK 6", "setting": "[5]; [7]", "value": "<100"},
      {"measurement": "Reciprocal anti-T1SP10MN(A) (-Cys) IgG endpoint titer, WEEK 8", "setting": "[5]; [7]", "value": "<100"},
      {"measurement": "Reciprocal anti-T1SP10MN(A) (-Cys) IgG1 endpoint titer", "setting": "[5]; [8]", "value": "<100"},
      {"measurement": "Reciprocal anti-T1SP10MN(A) (-Cys) IgG2a endpoint titer", "setting": "[5]; [8]", "value": "<100"},
      {"measurement": "Reciprocal anti-T1SP10MN(A) (-Cys) IgG2b endpoint titer", "setting": "[5]; [8]", "value": "<100"},
      {"measurement": "Reciprocal anti-T1SP10MN(A) (−Cys) IgG (GMT) endpoint titer", "setting": "[5]; Experiment 2, geometric mean of individual Balb/c mice, 14 days after second immunization", "value": 500},
      {"measurement": "Reciprocal anti-T1SP10MN(A) (−Cys) IgG1 (pool) endpoint titer", "setting": "[5]; [9]", "value": "<1000"},
      {"measurement": "Reciprocal anti-T1SP10MN(A) (−Cys) IgG2a (pool) endpoint titer", "setting": "[5]; [9]", "value": "<1000"},
      {"measurement": "Reciprocal anti-T1SP10MN(A) (−Cys) IgG (pool) endpoint titer", "setting": "[5]; Experiment 2, pooled serum n=5 Balb/c, immunized days 0 and 21, 14 days after second immunization", "value": "<1000"},
      {"measurement": "IgG serum titer specific for T1SP10MN(A) (−Cys), Mouse #1", "setting": "[5]; [10]", "value": 594},
      {"measurement": "IgG serum titer specific for T1SP10MN(A) (−Cys), Mouse #2", "setting": "[5]; [10]", "value": 50},
      {"measurement": "IgG serum titer specific for T1SP10MN(A) (−Cys), Mouse #3", "setting": "[5]; [10]", "value": 50},
      {"measurement": "IgG serum titer specific for T1SP10MN(A) (−Cys), Mouse #4", "setting": "[5]; [10]", "value": 50},
      {"measurement": "IgG serum titer specific for T1SP10MN(A) (−Cys), Mouse #5", "setting": "[5]; [10]", "value": 50},
      {"measurement": "Geometric Mean IgG serum titer specific for T1SP10MN(A) (−Cys), GMT", "setting": "[5]; Experiment 4, n=5 Balb/c, day 41, 13 days after secondary immunization", "value": 82},
      {"measurement": "Reciprocal anti-T1SP10MN(A) (−Cys) IgG1 endpoint titer", "setting": "[5]; [11]", "value": "<100"},
      {"measurement": "Reciprocal anti-T1SP10MN(A) (−Cys) IgG2a endpoint titer", "setting": "[5]; [11]", "value": "<100"},
      {"measurement": "Reciprocal anti-T1SP10MN(A) (−Cys) IgG2b endpoint titer", "setting": "[5]; [11]", "value": "<100"}
    ]}
  ]
}
